Data: publication PMC5383425, “Differential CLE peptide perception by plant receptors implicated from structural and functional analyses of TDIF-TDR interactions” (PLoS ONE, 2017)
Residue numbers refer to the chain shown, from its start. Square brackets hold non-standard residues; d marks the D form. Ends that are not written are not given here. Hyp = O=C(O)[C@@H]1C[C@@H](O)CN1

Experiments:
Experiment in all cases: ITC; 0.5–1 mM peptide titrated into 10–40 μM ecdTDR; 25°C; 10 mM sodium citrate, 100 mM NaCl, pH 5.5; fitted to one set of binding sites; MicroCal Auto-iTC200
Details in all cases: both partners purified
[1] = target: T1, ecdTDR Y253 alanine mutant (Arabidopsis thaliana, UniProt Q9FII5 30-642, alanine substitution of Y253)
T1 construct: TDR/PXY of A. thaliana, extracellular domain, residues 30-642; The text says only 'mutational studies' of Y253; source: High Five insect cells (baculovirus), secreted, purified as the wild type (Ni-NTA, size-exclusion chromatography)
T1 sequence (looked up): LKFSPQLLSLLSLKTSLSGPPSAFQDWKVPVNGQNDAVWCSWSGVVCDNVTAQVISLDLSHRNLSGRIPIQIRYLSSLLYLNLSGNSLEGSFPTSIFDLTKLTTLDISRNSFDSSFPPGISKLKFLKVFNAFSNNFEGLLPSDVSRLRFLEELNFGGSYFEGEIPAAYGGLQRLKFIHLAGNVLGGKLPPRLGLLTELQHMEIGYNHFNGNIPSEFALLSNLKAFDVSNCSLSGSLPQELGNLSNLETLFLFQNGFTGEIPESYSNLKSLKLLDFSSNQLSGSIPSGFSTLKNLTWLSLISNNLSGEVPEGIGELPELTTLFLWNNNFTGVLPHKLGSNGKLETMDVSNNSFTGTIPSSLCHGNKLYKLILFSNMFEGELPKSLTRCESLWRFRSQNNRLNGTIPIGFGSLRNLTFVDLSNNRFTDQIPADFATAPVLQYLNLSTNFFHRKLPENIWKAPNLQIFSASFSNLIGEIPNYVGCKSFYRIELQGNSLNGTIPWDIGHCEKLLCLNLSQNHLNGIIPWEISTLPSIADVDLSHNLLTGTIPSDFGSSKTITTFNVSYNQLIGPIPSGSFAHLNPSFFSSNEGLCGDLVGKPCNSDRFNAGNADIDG

[2] = target: T2, ecdTDR F161A mutant (Arabidopsis thaliana, UniProt Q9FII5 30-642, F161A)
T2 construct: TDR/PXY of A. thaliana, extracellular domain, residues 30-642; source: High Five insect cells (baculovirus), secreted, purified as the wild type (Ni-NTA, size-exclusion chromatography)
T2 sequence (looked up): T1 sequence (looked up) with F132A, A224Y

[3] = target: T3, ecdTDR W325A mutant (Arabidopsis thaliana, UniProt Q9FII5 30-642, single alanine substitution of W325)
T3 construct: TDR/PXY of A. thaliana, extracellular domain, residues 30-642; also called single alanine substitution of W325; source: High Five insect cells (baculovirus), secreted, purified as the wild type (Ni-NTA, size-exclusion chromatography)
T3 sequence (looked up): T1 sequence (looked up) with A224Y, W296A

Measured: binding result

B1: Tracheary Element Differentiation Inhibitory Factor (TDIF) peptide (peptide)
peptide: HEV[Hyp]SG[Hyp]NPISN
notes: TDIF, the 12-residue CLE peptide processed from CLE41 and CLE44 of A. thaliana; printed as HEV(Hyp)SG(Hyp)NPISN; numbers count on: the 12-residue peptide; CLE44 encodes the same peptide; also called wild type TDIF; wtTDIF; source: synthetic peptide (peptide 2.0)
binds: all assays above
